In paper PMC5700378:

Target: PrP^Sc enriched from elk brain infected with chronic wasting disease (elk) (UniProt P67986)
Assay: SPR

Sequence of UniProt P67986 (P67986 25-233 limits assumed): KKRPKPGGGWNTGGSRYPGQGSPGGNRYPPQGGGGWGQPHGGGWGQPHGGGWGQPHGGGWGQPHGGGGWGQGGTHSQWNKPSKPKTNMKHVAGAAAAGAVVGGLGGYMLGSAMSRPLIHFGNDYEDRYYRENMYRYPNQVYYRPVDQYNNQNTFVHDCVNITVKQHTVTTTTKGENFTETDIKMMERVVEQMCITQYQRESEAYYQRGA

Substance: purified full-length CD21 (from UniProt P20023 21-1033) (receptor)
- Kd: 16 nM
